Among the data in PMC4678016 are Kd values, retold here.

This test addresses capping protein (CP), purified, as used in pyrene-actin polymerization assays. As to the kind of experiment: pyrene-actin seeded polymerization assay.

“CARMIL2-CBR (CP-binding region of human CARMIL2b, Pro-961 to Arg-1072) (from UniProt Q6F5E8-2 961-1072) (domain or fragment)”: the Kd is 2.9 nM.

As a reminder, the Kd is the equilibrium constant for the complex coming apart.
